The nanobody polyreactivity screen of Harvey et al. (2022)

Test: yeast display, Sf9 membrane polyspecificity reagent, FACS + sequencing; frameworks hold sequencing errors
Method in brief: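 Galactose-induced (36–48 hours) yeast carrying a synthetic nanobody display library were exposed to 10% biotinylated, detergent-solubilized Sf9 membrane reagent at 4 °C for 1 hour. FACS followed streptavidin microbead enrichment, using low and high (top ~1%) gates for expression (anti-HA) and reagent binding (streptavidin). Colony PCR, MiSeq 2 × 250 sequencing and CDR-length filtering followed. Labels for polyreactivity reflect the gate of origin.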

Sequence | polyreactivity (PSR sort gate)
QVQLVESGGGLVQAGGSLSLSCDASGRIFVVKAMGWYRQAPGKERELVAAITRRGGSTYADSVKGRFTISRDNAKNTVYLQMNSLKPEDTAVYYCNAESYYGIFSYKYDYWGQGTQVTVSS | high polyreactivity
QVQLVESGGGLVQAGGSLSLSSAASGRTFTFNTMGWYRQAPGKERELVAAIDGDGTTNYADSVKGRFTISRDNAKYTVYLQMNSLKPEDTAVYYCAADFLYSFWYEPTFDYWGQGTQVTVSS | low polyreactivity
QVQLVESGGGLVQAGGSLSLSWAASGFILKINTMGWYRPAPRKERDLVADITESGGNTYADSEKWRFTISRDNAKNTVYLQMNSLKPEVTAVYYCNDDIYISPLVQVSKGYDYWGQGTQVTVSS | low polyreactivity
QVQLVESGGGLVQAGGSLSLTCAASGITFPRNAMGWSRQAPGKERELVAAISARGGNTYYADSVKGRFTISRDNSKNTVYLQMNSLKPEDTAVYYCNALGSSYSEPSEYDYWGQGTQVTVSS | low polyreactivity
QVQLVESGGGLVQAGGSLSLTCAASGITFYLYAMGWDIQAPGKERELVAAISSGSRTTYADSVKGRFTISRDNEKNTVYLQMNSLKPEDTAFYYCAAAYWNWGYYYSYDYWGQGTQVTVSS | high polyreactivity
QVQLVESGGGLVQAGGSLSLTCDAYGRTIYKYGMGWYREAPGKERDLVARINSNGGSTYYADSVKGRFTISRDNAKNTVYLELISLKPEDTAVYYCARSYVRSYGYYYWGQGTQVTVSS | low polyreactivity
QVQLVESGGGLVQAGGSRLSCAASGLIFIWYTMGWYRQAPGKERELVAAIDSSGGNTYYADSVKGRFTISRDNAKNPVYLQMNSLKPAETAVYYCATDVGHGAGNLMGYWGQGTQVTVSS | low polyreactivity
QVQLVESGGGLVQAGGSRRLSCAASGFFFRNYAMGWYRQAPGKEMELVAVITSSGGSTYYADSVKGRFTISRDNAKNTVYLQMNSLKPEDTAVYYCNKPGLRSGPRYDYWGQGTQVTVSS | high polyreactivity
QVQLVESGGGLVQAGGSRRLSCAASGFIFSGYAMGWYRQERGKERELVAAITRSGSRTYYADSVKGRFTISRDNAKNTVYLQMNSLKPEDTAVYYCAKDKPKYGISTIDYWGQGTLVTVSS | high polyreactivity
QVQLVESGGGLVQAGGSRRLSCAASGFIFTTYTRGWYRQATGTERELVAAIRSDGVRTYYADSVKGRFTISRDNAKNTVYLQMNSLKPEDTAVYYCNRVCAVRIGAGDYWGQGTQVTVSS | high polyreactivity
QVQLVESGGGLVQAGGSRRLSCAASGITFGWYAMGWYRQAPGKEMEWVATISQSGTSTYYADSVKGRFTISRDNAKNTVYLKMISLKPEDTAFYYCAADYIRGYYFRVRLEVDYWGQGTQVTVSS | low polyreactivity
QVQLVESGGGLVQAGGSRRLSCAASGITFSRYAMGWYRQAPGKERELVAAITSSGGSTYYADSVKGRFTISRDNAKNTVYLQMNSLKPEDTAVYYCAATSYYTREQYYYWGQGTQVTVSS | high polyreactivity
QVQLVESGGGLVQAGGSRRLSCAASGLIFVHYTMGWYRQATGKERELVAAITSSGGSTYYAYSVKGRFTISRDNAKNTVYLEMNSMKPEDTAVYYCATKSYSPTRTRFYYWGQGTQVTVSS | high polyreactivity
QVQLVESGGGLVQAGGSRRLSCAASGRIFTYYAMGWYRQAPGKERELVAAISSGGSTYYADSVKGRFTISRDNAKNTVYLQMNSLKPEDTAVYYCAAAGGYYGVNWRGDSWGQGTQVTVSS | high polyreactivity
QVQLVESGGGLVQAGGSRRLSCAASGRTFEGNAMGWYRQAPGKERELVAAITSGGRTNYADSVKGRFTISRDNAKNTVYLQMNSLKPEDTAVYYCAVDTRDRSTYFPGQAYDFWGQGTQVTVSS | low polyreactivity
QVQLVESGGGLVQAGGSRRLSCAASGRTFSKNAMGWYRQAPGKERELVAAISGSGGSTYYADSVKGRFTISRDNAKNSVYLQMNSLKPEDTAVYYCAADGTGFRYLRYDYWGQGTQVTVSS | high polyreactivity
QVQLVESGGGLVQAGGSRRLSCAASGRTFYLYAMGWYIQARGQERELVAANTTSGGSTYYADSVKGRFTISRDKAKNTVYLQMHSLKPEDTAVYYCNKDLSTTKFDDWGQGTQVTVSS | low polyreactivity
QVQLVESGGGLVQAGGSRRLSCAASGRTLGHNAMGWYRQAPGKERELVAAITSRGGTTYADSVKGRFTISRDNAKNTVYLQMNSLTPEDTAVYYCAARGYAYSRYYFWGQGTQVTVSS | high polyreactivity
QVQLVESGGGLVQAGGSRRLSCAASGSIFYLYAMGWSRQAPGKERELVATITWSGGSTYYADSVKGRFTISRDTAKNTVYLQMNSLKPEDTAVYYCAATALEWYPAVYNQYYYWGQGTQVTVSS | low polyreactivity
QVQLVESGGGLVQAGGSRRLSCAASGSILSKYTMGWYRQATGKERELVAVISSSGASTYYADSVKGRFTISRDNAKNTVYLQMNSLKPEDTAVYYCATYPWYSKYRYDHWGQGTQVTVSS | high polyreactivity
QVQLVESGGGLVQAGGSRRLSCAASGSTFYPYAMGWYRQAPGKERELVAAITWSGGRTYYADSVKGRFTISRDNAKNTVYLQMNSLKPEDTAVYYCAADRPDRWVDYWGQGTQVTVSS | low polyreactivity
QVQLVESGGGLVQAGGSRRLSCAPSGSIIGEYAMGWYRQAAGKERELVAAINVNGGRTYYADSVKGRFTISRDNAKYTVYLQMNRLKPEETAVYYCNAGYYLTLDYWGQGTQVTVSS | high polyreactivity
QVQLVESGGGLVQAGGSRRLTCAASGSIFFYNAMGWYRQATGKERELVAAISSATSTYYADSVKGRFTISRDNAMISVYVHMNSLTEEDTAVYYCAADFSDGYFWYDYWGQGTQVTVSS | high polyreactivity
QVQLVESGGGLVQAGGSRRVSCAASGITFPNYAMGWYRQAPGKERELVAAITGSGGSTYYADSVKGRFTISRDNAKNTVYVQMNSLKPEDTAVYYCNAVYYRYIRGFYYWGPGTQVTVSS | high polyreactivity
QVQLVESGGGLVQAGGSVRLSCAASGRIFRYYMGWYRQAPGKEREFVAAITTRGGRTYYADSVKGRFTISRDNAKNTVSLQMNSLKPEDTAVYYCAAGYNGAIIALRAYDYWGQGTQVTVSS | high polyreactivity
QVQLVESGGGLVQAGGSVRLSCAASGSIFNANTMGWYRQAPGKERELVAVITSGGTTNYADSVKGRFTISRDNAKNTVYLQMNSLKPEDTAVYYCAVRISGNWYDYWGQGTQVTVSS | low polyreactivity
QVQLVESGGGLVQAGGSVRLSCAASGSTSAYAMGWYRQAPGKEREFVAAIRFSAGSTYYADSVKGRFTISRDNAKNTVYLQMNSLKPEDTAVYYCAASYSVIFGYFPDYYWVVEYDYWGQGTQVTVSS | high polyreactivity
QVQLVESGGGLVQAGGTIRISSAPSGRTLGCNAMGRSRQAPGKEWELVSAISYSGGDTTYADSVKGRFTISRDKAKNTVYLQMNSLKPEDTAVYYCAARGDYYVYAYNRRFVYLGQGTQVTVSS | low polyreactivity
QVQLVESGGGLVQAGGTLPLTCAASGSTYYVYAMGCDRQAPGKEREFVAAITGSDGSTYYADSVMGRFTISRDNAKNTVYLQMNSLKPEDTAVYYCAADYYLQNYETGYGYWGQGTQVTVSS | low polyreactivity
QVQLVESGGGLVQAGGTLRLRCAASGFTFRYYVMRWYRQAPGKERELVAAITSGGSTNYADSVKGRFSISRDNAQNTVYLLMNSLKPEDTAVYYCAAGLSYRHNYWGQGTQVTVSS | low polyreactivity
